Experimental data as given in article PMC2175296.
“And” between values parts separate entries of the source, which are not always exact repeats. Equal values may be shown once.

Target: GST–hEST1A (recombinant full-length human EST1A/SMG6 as N-terminal GST fusion) (human) (UniProt Q86US8)
Assay: pull-down

Sequence of UniProt Q86US8 (Q86US8 whole entry, the tested form may be a part): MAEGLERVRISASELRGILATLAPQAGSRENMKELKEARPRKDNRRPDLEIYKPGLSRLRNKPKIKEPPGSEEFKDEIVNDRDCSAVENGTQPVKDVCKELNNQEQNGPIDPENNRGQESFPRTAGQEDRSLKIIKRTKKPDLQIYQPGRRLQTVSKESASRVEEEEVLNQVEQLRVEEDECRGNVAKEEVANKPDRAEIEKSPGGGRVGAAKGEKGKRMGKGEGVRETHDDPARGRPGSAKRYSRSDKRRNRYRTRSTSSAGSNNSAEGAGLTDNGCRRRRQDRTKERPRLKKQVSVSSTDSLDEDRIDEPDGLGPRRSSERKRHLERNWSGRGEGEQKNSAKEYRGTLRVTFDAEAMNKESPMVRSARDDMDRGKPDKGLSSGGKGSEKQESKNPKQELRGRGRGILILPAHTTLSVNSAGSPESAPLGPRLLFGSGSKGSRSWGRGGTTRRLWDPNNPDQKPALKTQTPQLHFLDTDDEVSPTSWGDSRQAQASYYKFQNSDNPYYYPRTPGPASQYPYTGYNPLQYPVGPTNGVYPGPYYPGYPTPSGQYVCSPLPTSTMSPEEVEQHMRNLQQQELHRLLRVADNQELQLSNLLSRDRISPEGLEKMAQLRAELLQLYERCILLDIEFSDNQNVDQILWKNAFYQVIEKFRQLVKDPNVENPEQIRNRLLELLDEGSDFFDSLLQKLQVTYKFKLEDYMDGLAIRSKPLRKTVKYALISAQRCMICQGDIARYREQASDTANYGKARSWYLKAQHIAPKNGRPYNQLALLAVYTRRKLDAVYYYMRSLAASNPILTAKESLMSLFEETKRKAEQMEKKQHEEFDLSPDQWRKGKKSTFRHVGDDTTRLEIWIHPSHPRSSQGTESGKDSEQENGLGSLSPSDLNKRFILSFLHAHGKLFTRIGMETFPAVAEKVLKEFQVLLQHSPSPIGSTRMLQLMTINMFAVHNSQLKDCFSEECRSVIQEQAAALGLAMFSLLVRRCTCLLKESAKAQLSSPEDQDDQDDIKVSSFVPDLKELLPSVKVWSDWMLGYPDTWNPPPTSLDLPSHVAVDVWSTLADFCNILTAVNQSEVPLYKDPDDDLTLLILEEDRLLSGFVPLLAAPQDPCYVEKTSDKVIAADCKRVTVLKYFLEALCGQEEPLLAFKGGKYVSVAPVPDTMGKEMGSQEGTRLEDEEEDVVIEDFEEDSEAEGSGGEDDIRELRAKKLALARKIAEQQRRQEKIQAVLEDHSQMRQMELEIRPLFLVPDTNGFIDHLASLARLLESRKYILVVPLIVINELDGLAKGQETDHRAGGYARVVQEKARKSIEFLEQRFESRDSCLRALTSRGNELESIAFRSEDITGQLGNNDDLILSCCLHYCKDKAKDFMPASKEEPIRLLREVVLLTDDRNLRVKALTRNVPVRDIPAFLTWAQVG

percent of telomerase activity associated with the beads: 10 percent and 30 percent
Substance: telomerase, expressed and reconstituted in insect cells or in RRL
